The results in this text go back to US8242083B2, “Kinase substrates” (PerkinElmer Health Sciences, Inc., priority 2008, dated 2012).

Common to all, as to format: biochemical
One assay has as its target TYK2 (Homo sapiens, UniProt P29597). As to the kind of experiment: TR-FRET kinase assay, TYK2. To be noted: Kinase Concentration 4 nM; 50 nM ULight-labeled substrate, 200 micromolar ATP, 2 hours. The method, then:
(§1) TR-FRET kinase assays are performed under standardized conditions: various individual kinases are incubated with 50 nM of kinase substrate BRB1 labeled with the TR-FRET acceptor dye ULight (PerkinElmer) and 200 micromolar ATP in 10 μL of kinase assay buffer (50 mM HEPES pH7.5, 10 mM MgCl2, 3 mM MnCl2, 1 mM EGTA, 2 mM DTT and 0.01% Tween-20) for 2 hours at room temperature. Reactions are stopped with EDTA, and anti-phospho-tyrosine antibodies (clone PT66) labeled with the TR-FRET europium chelate donor dye are added to a final concentration of 2 nM in a final volume of 20 μL. The TR-FRET signal emitted at 665 nm is read one hour after the addition of antibodies using a TR-FRET plate reader such as the Envision® Multilabel Plate reader (PerkinElmer). The emitted signal at 665 nm is proportional to the extent of peptide phosphorylation, Control reactions indicative of background are performed excluding ATP from the reaction.
(§2) Assay conditions are identical to those used described for FIG. 1.
On the technique in general: In TR-FRET formats the signal depends on donor and acceptor labels being close together.

The target of another assay is ARG (Homo sapiens, UniProt P42684). As to the kind of experiment: TR-FRET kinase assay, ARG. To be noted: Kinase Concentration 0.5 nM; 50 nM ULight-labeled substrate, 200 micromolar ATP, 2 hours. The method, then:
as §1, §2

In another assay the target is RET (Homo sapiens, UniProt P07949). As to the kind of experiment: TR-FRET kinase assay, RET. To be noted: Kinase Concentration 0.5 nM; 50 nM ULight-labeled substrate, 200 micromolar ATP, 2 hours. The method, then: as §1, §2
In the next assay the target is FRK (Homo sapiens, UniProt P42685). Nature of the assay: TR-FRET kinase assay, FRK. The following applies: Kinase Concentration 0.5 nM; 50 nM ULight-labeled substrate, 200 micromolar ATP, 2 hours. The protocol: as §1, §2
A further assay has as its target TRKB (NTRK2) (Homo sapiens, UniProt Q16620). Nature of the assay: TR-FRET kinase assay, TRKB (NTRK2). The following applies: Kinase Concentration 0.5 nM; 50 nM ULight-labeled substrate, 200 micromolar ATP, 2 hours. The method, then:
as §1, §2

Another assay has as its target ROR1 (Homo sapiens, UniProt Q01973). As to the kind of experiment: TR-FRET kinase assay, ROR1. The following applies: Kinase Concentration 20 nM; 50 nM ULight-labeled substrate, 200 micromolar ATP, 2 hours. The method, then: as §1, §2
In a further assay the target is ROS (Homo sapiens, UniProt P08922). As to the kind of experiment: TR-FRET kinase assay, ROS. The following applies: Kinase Concentration 0.25 nM; 50 nM ULight-labeled substrate, 200 micromolar ATP, 2 hours. The protocol: as §1, §2
A further assay addresses T1, DDR2 (Homo sapiens, UniProt Q16832).
T1 sequence (Q16832 22-855): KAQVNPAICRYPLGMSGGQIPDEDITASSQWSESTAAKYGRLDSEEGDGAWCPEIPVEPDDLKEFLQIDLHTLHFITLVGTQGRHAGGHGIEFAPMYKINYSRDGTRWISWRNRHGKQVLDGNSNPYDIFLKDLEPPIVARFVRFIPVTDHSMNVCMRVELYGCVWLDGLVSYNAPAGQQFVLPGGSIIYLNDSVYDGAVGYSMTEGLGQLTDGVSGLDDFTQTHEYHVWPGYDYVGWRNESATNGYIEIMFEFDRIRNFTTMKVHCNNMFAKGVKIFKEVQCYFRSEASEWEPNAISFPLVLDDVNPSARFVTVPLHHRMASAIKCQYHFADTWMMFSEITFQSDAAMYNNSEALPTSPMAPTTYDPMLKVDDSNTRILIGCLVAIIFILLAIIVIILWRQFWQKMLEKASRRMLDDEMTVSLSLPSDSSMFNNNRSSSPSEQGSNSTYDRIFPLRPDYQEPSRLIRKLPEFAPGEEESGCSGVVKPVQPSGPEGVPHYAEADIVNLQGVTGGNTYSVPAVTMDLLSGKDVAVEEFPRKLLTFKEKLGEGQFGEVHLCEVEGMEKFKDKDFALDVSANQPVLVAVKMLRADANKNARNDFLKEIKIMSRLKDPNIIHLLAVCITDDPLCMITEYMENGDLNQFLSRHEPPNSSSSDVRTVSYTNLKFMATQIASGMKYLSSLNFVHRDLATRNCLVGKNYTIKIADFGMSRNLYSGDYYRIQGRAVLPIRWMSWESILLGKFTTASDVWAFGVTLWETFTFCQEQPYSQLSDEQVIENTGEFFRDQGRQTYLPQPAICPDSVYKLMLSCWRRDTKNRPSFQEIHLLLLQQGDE
Nature of the assay: TR-FRET kinase assay, DDR2. The following applies: Kinase Concentration 0.5 nM; 50 nM ULight-labeled substrate, 200 micromolar ATP, 2 hours. The method, then: as §1, §2

For the next assay, the target named is FAK (Homo sapiens, UniProt Q05397). As to the kind of experiment: TR-FRET kinase assay, FAK. The following applies: Kinase Concentration 3 nM; 50 nM ULight-labeled substrate, 200 micromolar ATP, 2 hours. The method, then:
as §1, §2

Another assay concerns the target T2, MUSK (Homo sapiens, UniProt O15146).
T2 sequence (O15146 24-869): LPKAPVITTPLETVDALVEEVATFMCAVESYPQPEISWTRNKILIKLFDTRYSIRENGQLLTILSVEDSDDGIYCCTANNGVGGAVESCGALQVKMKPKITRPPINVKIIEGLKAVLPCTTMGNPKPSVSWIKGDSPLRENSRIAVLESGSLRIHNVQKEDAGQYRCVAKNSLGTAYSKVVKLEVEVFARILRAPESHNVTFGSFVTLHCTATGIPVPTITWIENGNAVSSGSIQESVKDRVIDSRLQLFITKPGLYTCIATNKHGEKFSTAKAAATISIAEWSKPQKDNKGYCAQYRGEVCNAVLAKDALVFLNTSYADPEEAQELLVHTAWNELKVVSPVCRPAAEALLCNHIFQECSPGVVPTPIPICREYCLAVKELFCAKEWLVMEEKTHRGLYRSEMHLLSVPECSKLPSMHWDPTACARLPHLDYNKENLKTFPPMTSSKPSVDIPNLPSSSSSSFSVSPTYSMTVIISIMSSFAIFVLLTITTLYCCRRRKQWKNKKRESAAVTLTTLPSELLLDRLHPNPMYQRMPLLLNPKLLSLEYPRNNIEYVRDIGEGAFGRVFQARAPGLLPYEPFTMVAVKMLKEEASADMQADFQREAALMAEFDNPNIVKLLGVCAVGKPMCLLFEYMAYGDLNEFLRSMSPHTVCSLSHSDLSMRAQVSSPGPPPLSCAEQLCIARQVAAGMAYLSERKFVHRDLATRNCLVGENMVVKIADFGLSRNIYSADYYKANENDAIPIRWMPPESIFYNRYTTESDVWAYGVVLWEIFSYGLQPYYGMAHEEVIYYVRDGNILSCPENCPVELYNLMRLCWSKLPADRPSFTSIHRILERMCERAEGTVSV
Nature of the assay: TR-FRET kinase assay, MUSK. To be noted: Kinase Concentration 1 nM; 50 nM ULight-labeled substrate, 200 micromolar ATP, 2 hours. The protocol:
as §1, §2

The next assay deals with HER4 (ERBB4) (Homo sapiens, UniProt Q15303). As to the kind of experiment: TR-FRET kinase assay, HER4 (ERBB4). To be noted: Kinase Concentration 0.1 nM; 50 nM ULight-labeled substrate, 200 micromolar ATP, 2 hours. The method, then:
as §1, §2

A further assay concerns the target INSR (Homo sapiens, UniProt P06213). As to the kind of experiment: TR-FRET kinase assay, INSR. The following applies: Kinase Concentration 20 nM; 50 nM ULight-labeled substrate, 200 micromolar ATP, 2 hours. The method, then: as §1, §2

ROS, sequence (P08922 28-2347, species assumed): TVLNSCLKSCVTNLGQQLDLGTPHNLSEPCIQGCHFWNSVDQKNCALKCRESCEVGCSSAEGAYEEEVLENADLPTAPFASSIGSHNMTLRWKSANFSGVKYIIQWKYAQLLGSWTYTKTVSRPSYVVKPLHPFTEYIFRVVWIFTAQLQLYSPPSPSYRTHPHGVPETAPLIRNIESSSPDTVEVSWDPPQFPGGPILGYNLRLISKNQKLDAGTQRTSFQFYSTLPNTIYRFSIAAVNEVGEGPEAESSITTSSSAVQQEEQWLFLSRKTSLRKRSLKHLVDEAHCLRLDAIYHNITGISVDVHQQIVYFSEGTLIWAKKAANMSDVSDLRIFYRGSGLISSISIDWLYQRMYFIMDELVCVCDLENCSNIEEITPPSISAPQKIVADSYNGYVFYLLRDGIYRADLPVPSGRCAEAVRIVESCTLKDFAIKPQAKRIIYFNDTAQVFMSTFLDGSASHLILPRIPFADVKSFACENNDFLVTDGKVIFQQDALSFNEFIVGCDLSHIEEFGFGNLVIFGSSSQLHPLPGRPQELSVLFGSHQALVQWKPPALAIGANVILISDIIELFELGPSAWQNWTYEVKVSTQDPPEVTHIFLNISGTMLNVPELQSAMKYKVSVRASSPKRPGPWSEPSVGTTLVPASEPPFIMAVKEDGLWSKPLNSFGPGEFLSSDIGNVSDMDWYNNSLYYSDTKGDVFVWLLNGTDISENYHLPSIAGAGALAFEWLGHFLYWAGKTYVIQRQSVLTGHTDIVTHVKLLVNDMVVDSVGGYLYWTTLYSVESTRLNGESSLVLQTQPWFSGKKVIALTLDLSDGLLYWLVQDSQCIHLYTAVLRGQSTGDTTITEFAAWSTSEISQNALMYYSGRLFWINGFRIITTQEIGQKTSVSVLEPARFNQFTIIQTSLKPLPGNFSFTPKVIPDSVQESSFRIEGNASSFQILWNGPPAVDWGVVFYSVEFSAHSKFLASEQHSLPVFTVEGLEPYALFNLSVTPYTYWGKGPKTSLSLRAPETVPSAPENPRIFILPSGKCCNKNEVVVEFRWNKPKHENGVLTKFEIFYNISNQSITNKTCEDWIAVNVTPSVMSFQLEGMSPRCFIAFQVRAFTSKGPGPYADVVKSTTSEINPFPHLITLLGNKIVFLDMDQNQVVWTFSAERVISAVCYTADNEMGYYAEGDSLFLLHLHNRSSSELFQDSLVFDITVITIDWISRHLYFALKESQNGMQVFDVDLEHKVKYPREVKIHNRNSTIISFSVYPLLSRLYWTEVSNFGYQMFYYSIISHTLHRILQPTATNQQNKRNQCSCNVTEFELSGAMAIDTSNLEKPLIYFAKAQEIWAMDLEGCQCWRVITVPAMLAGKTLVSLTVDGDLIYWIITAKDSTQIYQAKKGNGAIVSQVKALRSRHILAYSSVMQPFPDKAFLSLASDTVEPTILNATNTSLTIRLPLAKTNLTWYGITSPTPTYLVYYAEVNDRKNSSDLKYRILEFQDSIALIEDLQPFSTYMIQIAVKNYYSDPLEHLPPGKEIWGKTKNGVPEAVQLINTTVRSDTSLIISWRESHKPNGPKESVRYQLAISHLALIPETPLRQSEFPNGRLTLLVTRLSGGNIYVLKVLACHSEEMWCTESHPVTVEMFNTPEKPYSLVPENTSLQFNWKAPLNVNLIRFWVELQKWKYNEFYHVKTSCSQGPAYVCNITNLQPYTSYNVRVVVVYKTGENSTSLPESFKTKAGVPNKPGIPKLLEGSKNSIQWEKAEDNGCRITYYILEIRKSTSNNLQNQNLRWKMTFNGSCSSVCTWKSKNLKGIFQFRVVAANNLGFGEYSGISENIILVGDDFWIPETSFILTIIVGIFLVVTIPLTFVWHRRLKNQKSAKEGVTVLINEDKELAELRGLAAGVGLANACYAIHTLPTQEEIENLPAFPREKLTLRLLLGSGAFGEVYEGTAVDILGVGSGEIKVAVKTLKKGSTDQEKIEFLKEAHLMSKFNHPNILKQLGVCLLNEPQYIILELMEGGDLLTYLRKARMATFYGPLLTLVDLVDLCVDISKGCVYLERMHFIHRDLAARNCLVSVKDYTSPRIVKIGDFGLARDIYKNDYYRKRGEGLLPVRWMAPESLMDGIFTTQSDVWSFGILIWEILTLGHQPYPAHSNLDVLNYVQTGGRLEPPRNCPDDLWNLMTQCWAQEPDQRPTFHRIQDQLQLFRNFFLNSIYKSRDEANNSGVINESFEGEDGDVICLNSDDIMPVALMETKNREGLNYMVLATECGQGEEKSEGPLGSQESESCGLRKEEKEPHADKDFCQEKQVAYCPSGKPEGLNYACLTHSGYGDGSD
ARG, sequence (P42684 whole entry): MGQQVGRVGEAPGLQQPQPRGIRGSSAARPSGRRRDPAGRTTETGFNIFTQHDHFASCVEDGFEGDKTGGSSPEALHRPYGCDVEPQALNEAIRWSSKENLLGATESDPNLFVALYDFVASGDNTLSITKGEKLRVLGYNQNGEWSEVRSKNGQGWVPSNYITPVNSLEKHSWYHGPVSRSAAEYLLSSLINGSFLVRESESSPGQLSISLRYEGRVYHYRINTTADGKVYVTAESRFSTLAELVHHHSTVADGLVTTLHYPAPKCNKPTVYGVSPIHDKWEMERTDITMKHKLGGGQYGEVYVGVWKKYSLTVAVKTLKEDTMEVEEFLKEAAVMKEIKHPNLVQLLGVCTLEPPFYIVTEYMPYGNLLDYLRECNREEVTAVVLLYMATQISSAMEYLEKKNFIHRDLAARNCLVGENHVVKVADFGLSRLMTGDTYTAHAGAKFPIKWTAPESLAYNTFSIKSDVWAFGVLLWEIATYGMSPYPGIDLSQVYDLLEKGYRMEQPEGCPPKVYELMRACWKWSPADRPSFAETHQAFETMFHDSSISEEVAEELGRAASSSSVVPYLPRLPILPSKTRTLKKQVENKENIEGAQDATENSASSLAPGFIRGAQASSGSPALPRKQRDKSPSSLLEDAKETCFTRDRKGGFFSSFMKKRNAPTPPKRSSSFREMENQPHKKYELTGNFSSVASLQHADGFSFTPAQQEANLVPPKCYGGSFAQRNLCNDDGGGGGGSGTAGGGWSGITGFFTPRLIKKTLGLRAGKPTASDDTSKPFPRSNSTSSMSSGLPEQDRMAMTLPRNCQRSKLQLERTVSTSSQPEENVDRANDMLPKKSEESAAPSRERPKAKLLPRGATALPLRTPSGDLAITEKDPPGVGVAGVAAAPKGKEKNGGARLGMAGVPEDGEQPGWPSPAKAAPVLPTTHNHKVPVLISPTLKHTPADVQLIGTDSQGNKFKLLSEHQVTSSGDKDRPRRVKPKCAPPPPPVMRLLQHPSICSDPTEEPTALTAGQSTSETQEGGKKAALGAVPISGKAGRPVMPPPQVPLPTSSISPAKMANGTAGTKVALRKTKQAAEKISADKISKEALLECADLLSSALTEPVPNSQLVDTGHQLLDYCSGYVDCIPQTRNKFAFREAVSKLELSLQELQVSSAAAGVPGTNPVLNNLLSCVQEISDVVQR
TYK2, sequence (P29597 whole entry, species assumed): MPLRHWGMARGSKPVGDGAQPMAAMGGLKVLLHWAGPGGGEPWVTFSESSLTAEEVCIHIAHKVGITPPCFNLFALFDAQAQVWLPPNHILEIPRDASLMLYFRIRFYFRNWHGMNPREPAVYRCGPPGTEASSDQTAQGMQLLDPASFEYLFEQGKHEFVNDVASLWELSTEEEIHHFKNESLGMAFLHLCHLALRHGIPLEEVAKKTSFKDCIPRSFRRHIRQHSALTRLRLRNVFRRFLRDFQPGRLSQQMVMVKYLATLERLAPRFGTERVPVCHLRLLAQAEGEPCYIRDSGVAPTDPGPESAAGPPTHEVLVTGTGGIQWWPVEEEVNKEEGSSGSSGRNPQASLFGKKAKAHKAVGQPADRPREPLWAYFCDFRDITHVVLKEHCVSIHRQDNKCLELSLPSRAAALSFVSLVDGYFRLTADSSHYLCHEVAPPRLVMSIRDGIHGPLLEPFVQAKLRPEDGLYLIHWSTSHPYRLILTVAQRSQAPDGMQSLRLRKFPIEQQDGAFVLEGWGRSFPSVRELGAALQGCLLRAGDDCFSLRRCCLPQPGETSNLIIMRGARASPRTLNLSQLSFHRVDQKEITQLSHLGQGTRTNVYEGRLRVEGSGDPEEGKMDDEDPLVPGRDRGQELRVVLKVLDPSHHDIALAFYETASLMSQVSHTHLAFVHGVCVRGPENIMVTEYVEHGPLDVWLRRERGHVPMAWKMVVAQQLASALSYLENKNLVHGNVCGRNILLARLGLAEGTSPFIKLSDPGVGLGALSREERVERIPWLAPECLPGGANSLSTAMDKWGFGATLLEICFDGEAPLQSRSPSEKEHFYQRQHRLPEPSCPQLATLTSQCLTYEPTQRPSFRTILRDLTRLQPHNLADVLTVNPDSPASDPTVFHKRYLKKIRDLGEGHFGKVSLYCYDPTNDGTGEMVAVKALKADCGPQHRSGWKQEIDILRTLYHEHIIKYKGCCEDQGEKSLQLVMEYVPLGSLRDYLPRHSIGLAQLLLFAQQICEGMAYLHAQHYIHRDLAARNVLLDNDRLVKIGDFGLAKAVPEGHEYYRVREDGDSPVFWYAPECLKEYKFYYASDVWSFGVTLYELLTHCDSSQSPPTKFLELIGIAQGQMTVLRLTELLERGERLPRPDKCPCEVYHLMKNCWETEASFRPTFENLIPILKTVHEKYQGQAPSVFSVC

Take “C AYE AYE AYE K EYA EYA EYA K AYA EYE R (CAYEAYEAYEKEYAEYAEYAKAYAEYER; tyrosine kinase substrate peptide) [BRB1]”: the “Signal to Noise ratio with BRB1 Peptide” value with TYK2 is reported as 7.3; with ARG, 10.6; with RET, 20.3; with FRK, 9.7; with TRKB (NTRK2), 28.0; with ROR1, 1.1. Further, the “Signal to Noise ratio with BRB1 Peptide” value came to 24.5 with ROS; 1.0 in the assay with DDR2; 1.7 in the assay with FAK; 3.1 in the assay with MUSK; 3.1 with HER4 (ERBB4); 4.0 in the assay with INSR.
